Numbering of substitutions follows the chain as printed. In names and notes the source's numbering stands.
B1: TM2 R104EK141E: TM2 mutant, arginine 104 and lysine 141 each replaced with glutamic acid; SEQ ID NO: 16 (protein)
chain: MSDVQSSLTGTWYNELNSKMELTANKDGTLTGKYLSKVGDVYVPYPLSGRYNLQPPAGQGVALGWAVSWENSKIHSATTWSGQFFSESSPVILTQWLLSSSTAEGDVWESTLVGNDSFTKTAPTEQQIAHAQLHCRAPRLE
modifications: Synthetic TM2 R104EK141E
B2: TM2 D40NR104E: TM2 mutant having mutation of D40N and R104E; SEQ ID NO: 22 (protein)
chain: B1 chain with D40N, E141K
modifications: Synthetic TM2 D40NR104E

Tests used:
[1] = Heat stability of protein structure (soluble protein after heating, SDS-PAGE); format: physicochemical; conditions: heated for 20 minutes
Description: 3-8) Heat Stability of HALU TM2 Protein Structure Each of 0.2 μg/μL TM2 mutant solutions (10 μL (2 μg)) was heated at room temperature, 50, 60, 70, 80, 90, or 99° C. for 20 minutes. Then, the solution was centrifuged at 15000 rpm for 10 minutes, and the soluble protein in the supernatant was suspended in the same volume of 2×SDS sample buffer (250 mM Tris-HCl, pH 6.8, 20% 2-mercaptoethanol, 20% SDS, 20% glycerol). The suspension was heated at 95° C. for 10 minutes, followed by SDS-PAGE. The protein bands were detected by CBB staining A standard curve was prepared using a quantitative marker (LMW ELECTROPHORESIS CALIBRATION KIT; Pharmacia Biotech) with Las-3000 (FUJIFILM) to quantify the protein bands.

[2] = Isoelectric focusing electrophoresis (pI observed); format: physicochemical; conditions: pH 3 to 10 gel
Description: The isoelectric point of each low-pI TM2 was measured by isoelectric focusing electrophoresis using an XCell SureLock Mini-Cell (Invitrogen). In accordance with the instruction, each low-pI TM2 (500 ng) and an IEF sample buffer (pH 3 to 10 (2×), Invitrogen) were mixed and were added to a polyacrylamide gel (pH 3 to 10, IEF Gel, Invitrogen) at a pH ranging from 3 to 10, followed by electrophoresis at a variable voltage of 100 V for 1 hour, 200 V for 1 hour, and 500 V for 45 minutes in this order.
After the electrophoresis, the gel was shaken in a blotting buffer (0.7% acetic acid) for 10 minutes and then was transferred onto a PVDF membrane at 10 V for 1 hour using an XCell ll Blot Module (Invitrogen). The PVDF membrane was subjected to reaction with anti-TM2 rabbit antibody (PCT/W2006/326260) serving as a primary antibody and with alkaline phosphate-labeled anti-rabbit IgG antibody (BIO-RAD) serving as a secondary antibody, followed by detection of bands with Alkaline Phosphatase Substrate Kit II
The isoelectric point of the high-affinity TM2 was measured by isoelectric focusing electrophoresis using an XCell SureLock Mini-Cell (Invitrogen). […] The electric point of TM2 D40N having replacement of the […] amino acid was higher than that of the wild type TM2 also in the isoelectric focusing electrophoresis.
The isoelectric point of HALU TM2 was measured by isoelectric focusing electrophoresis using an XCell SureLock Mini-Cell (Invitrogen). In accordance with the instruction, bands of each HALU TM2 (4 μg) were detected by CBB staining. […] The observed isoelectric point of TM2 D40N was 9.7, and was reduced to 8.9 after introduction of mutation of R104E and was reduced to 7.3 to 7.5 after further introduction of mutation of K141E.

human serum protein [3] = test: Non-specific adsorption of low-pI TM2 to human serum protein-immobilized magnetic beads; format: binding
Description: In this embodiment, non-specific binding to human serum was investigated as non-specific adsorption of low-pI TM2 to serum protein-immobilized magnetic beads. Specifically, in order to investigate the non-specific binding of low-pI TM2, the amount of low-pI TM2 adsorbed to magnetic beads to which human serum protein was covalently bonded was measured. TM2 K26A, TM2 K73Q, TM2 R104E, TM2 K141E, and TM2 R104EK141E, which were highly expressed in Escherichia coli, were used as the low-pI TM2 to be investigated.
Human serum protein and magnetic beads were bound to each other as follows. Magnetic beads having surfaces coated with carboxyl groups (Dynabeads M-270 Carboxylic Acid, Dynal, 210 μL) were washed with 0.01 N sodium hydroxide (210 μL) for 10 minutes and then with ultrapure water (210 μL) for 10 minutes three times. To the washed magnetic beads, 1-ethyl-3-(3-dimethylaminopropyl)carbodiimide hydrochloride (EDC, PIERCE) dissolved in cooled ultrapure water was added into a final concentration of 0.2 M, and the mixture was shaken at room temperature for 30 minutes. Then, the magnetic beads were washed with cooled ultrapure water (210 μL) and then with 50 mM MES buffer (pH 5.0, 210 μL).
To the magnetic beads, 1 mg/mL human serum protein (CHEMICON, 210 μL) dialyzed with 50 mM MES buffer (pH 5.0) was added. The mixture was shaken at room temperature for 30 minutes to covalently bind the human serum protein to the magnetic beads. The magnetic beads were collected with a magnet to remove the supernatant. The unreacted active groups on the beads were eliminated with 50 mM tris buffer (pH 7.0, 210 μL), and then the magnetic beads were blocked with a PBS buffer (420 μL) containing 0.5% BSA and 0.1% Tween 20. The magnetic beads were suspended in a PBS buffer (210 μL) to obtain human serum protein-immobilized magnetic beads.
The magnetic beads (7 μL) and 0.56 μg/mL of each low-pI TM2 (100 μL) were mixed for reaction at room temperature for 1 hour. The magnetic beads were collected with a magnetic, and the supernatant was removed. After washing with 20 mM potassium phosphate buffer (500 μL) containing 500 mM sodium chloride, the magnetic beads were mixed with 20 μL of 2×SDS sample buffer (250 mM Tris-HCl, pH 6.8, 20% 2-mercaptoethanol, 20% SDS, 20% glycerol), followed by heating at 95° C. for 20 minutes to dissociate the low-pI TM2 from the magnetic beads.
This sample was subjected to SDS-PAGE and then western blotting analysis to determine the amount of the low-pI TM2. Anti-tamavidin 2 rabbit antibody and alkaline phosphatase-labeled anti-rabbit IgG goat antibody were used as the primary antibody and the secondary antibody, respectively. The bands were detected with Alkaline Phosphatase Substrate Kit II <VECTOR Black> (VECTRO) and were quantified with Las-3000 (FUJIFILM).

Salmon sperm DNA = test: Non-specific binding to DNA (membrane-adsorbed DNA, biotinylated HRP, ECL); conditions: salmon sperm DNA 10 μg to 1 μg on membrane, 25 μg/mL protein
Description: Salmon sperm DNA diluted stepwise from 10 μg to 1 μg with 2×SSC buffer was denatured with an alkali and was adsorbed to Hybond N+membrane (Amersham Biosciences) using Bio-Dot SF (BIO-RAD). After blocking the membrane with 5×Denhardt's solution (0.1% BSA, 0.1% ficoll, 0.1% polyvinylpyrrolidone), the membrane was immersed in 25 μg/mL of low-pI TM2 or the wild-type TM2 at room temperature for 90 minutes. Then, the membrane was washed with a TUBS buffer (TBS buffer containing 0.05% Tween 20) at room temperature for 5 minutes three times. The membrane was blocked with a TBS buffer containing 3% skimmed milk and 0.1% Tween 20 for 1 hour. The membrane was subjected to a reaction with biotinylated horseradise peroxidase (Vector) diluted 5000 times with a TBS buffer containing 3% skimmed milk and 0.1% Tween 20 at room temperature for 1 hour. The membrane was washed with a TBS buffer containing 0.1% Tween 20 again and was then shaken in a solution that is a mixture of reagent 1 and reagent 2 of ECL (Amasham) in the same volumes, followed by detection of the luminol reaction with Las-3000 (FUJIFILM).
The non-specific binding of HALU TM2 to DNA was analyzed by the process in paragraph 1-11) of Example 1.

[4] = Biotin-binding test (Biacore 3000, biotin-LC-BSA immobilized); conditions: Biotin-BSA (22.4 Å)
Description: High-purity BSA (Sigma, 2 mg) and NHS-LC-biotin (Pierce, 1 mg) were dissolved in 50 mM sodium borate (pH 8.0, 1 mL) and were incubated at 4° C. for 2 hours. The solution was put into a dialysis tube (MWCO 6-8,000) and was dialyzed with 50 mM sodium carbonate (pH 6.7) at 4° C. overnight. The resulting biotin-LC-BSA conjugate (MW: 67 kDa, 30 μM) was used as a ligand for a Biacore (registered trademark) biosensor.
Biotin-LC-BSA and BSA serving as a negative control were immobilized on CM5 sensor chips by amine coupling method. The amount for immobilization was adjusted to about 200 RU. The chips to which BSA was immobilized were disposed in flow cells 1 and 3, while the chips to which biotin-LC-BSA was immobilized were disposed in flow cells 2 and 4.
Accordingly, seven step measurement (3.125, 6.25, […], 25, 50, 100, and 200 nM) was conducted from the lowest concentration, without recycling steps. The data of BSA as reference was deducted from the data of BSA-LC-biotin. The measurement was performed at 25° C. The resulting sensorgrams were subjected to reaction kinetics analysis using analysis software BIAevaluation ver. 4.1 with a 1:1 binding model to calculate the binding rate constant (ka) and the dissociation rate constant (kd). The dissociation constant (KD) was determined from kd/ka. In the case where no recycling step is employed, the Rmax (maximum amount of binding analyte) decreases at each measurement. Accordingly, in the analysis, the Rmax was calculated by conducting local fitting for each concentration, and only the data of analyte concentrations that were approximated to the 1:1 binding model was employed.
TM2 and HALU TM2 used as analytes were prepared by purification with 2-iminobiotin agarose in accordance with a common method and dialysis with 20MM KPi (pH 7) overnight. The analytes were each adjusted to about 50 μg/mL in 10 mM acetate buffer (pH 5, Biacore).
The immobilization of the ligand and measurement and analysis of specific interaction with the analytes were conducted as in paragraph 2-7-2).

human serum protein [5] = test: Non-specific adsorption of serum protein to HALU TM2-immobilized magnetic beads; format: binding; conditions: human serum diluted 800 times, anti-human IgG detection
Description: In this Example, non-specific adsorption of serum protein to HALU TM2-immobilized magnetic beads was investigated.
TM2 D40NR104E and TM2 D40NR104EK141E were bonded covalently to magnetic beads (Dynabeads M-270 Carboxylic Acid, Dynal) by the process described in paragraph 1-9) of Example 1, and the amount of human serum protein adsorbed to the beads was measured. The amount of each HALU TM2 immobilized to the magnetic beads was adjusted to 10 μg/100 μL beads. Human serum (CHEMICON) was diluted 800 times with a PBS buffer, and the HALU TM2-immobilized magnetic beads (50 μL) to which a certain amount of protein was immobilized were added to the diluted human serum, followed by mixing by turning the tube containing the beads upside down at room temperature for 15 minutes. The magnetic beads were washed with a PBS buffer containing 0.1% Tween 20 (PBST, 500 μL) four times and were then subjected to antigen-antibody reaction at room temperature for 15 minutes with HRP-labeled anti-human IgG mouse antibody (100 μL) diluted 5000 times with PBST containing 0.5% BSA. Subsequently, the beads were washed with PBST (500 μL) five times, followed by color development with 1-Step Ultra TMB-ELISA (100 μL). After termination of the color development with 2M sulfuric acid (100 μL), the magnetic beads were collected with a magnet. The absorbance at 450 nm of the supernatant was measured with an Infinite 200 microplate reader.

Molecule | Thermal stability (temp. at which 50% of protein was lost) [1] | pI observed [2] | decrease of adsorption to human serum protein compared to the wild type TM2 (human serum protein [3]; FIG. 1) | non-specific binding to human serum protein compared to TM2 (human serum protein [3]; FIG. 1) | Non-specific binding of serum protein (%) (human serum protein [3]; wild type TM2 = 100) | Non-specific binding of DNA (Salmon sperm DNA) | ka [4] | kd ([4]; values in parentheses) | Non-specific binding to serum protein (A450) (human serum protein [5]) | Non-specific binding to serum protein (A450) (human serum protein [5]; listed as D40NR104E)
streptavidin [reference compound] | 70 °C | – | – | – | – | – | – | – | – | –
B1 | – | 6.2 | 70% | significantly low | 25% | lower than the detection limit | – | – | – | –
B2 | 78 °C | 8.9 | – | – | – | – | 1.4 × 10^6 | (2.9 × 10^−9) | low | 0.56
